In patent publication US5262522 one finds Kd data, which are given here for one substance.

In experiment [1] the target is Endogenous high affinity simian LIF receptors on COS-7 cells (simian). Briefly: Scatchard analysis of 125I-LIF binding to non-transfected COS-7 cells (curve E).
Experiment [2] has the same target. The experiment is described as follows: Scatchard analysis of 125I-LIF binding to COS-7 cells transfected with pHLIFR-65 and CAV, high affinity site (curve B, site 1).

Usually Kd stands for the equilibrium constant for the complex coming apart. A lower Kd goes with tighter binding. Take “Recombinant human leukemia inhibitory factor (LIF) (from UniProt P15018) (ligand)”: the dissociation constant (Kd) in experiment [1] came out at 0.03 nM; in experiment [2], 0.033 nM.
